For nine molecules, EC50, IC50 and Kd results are on record in patent publication US20260347506 (published 2026).

Values joined by “and” are separate entries in the source; they are usually repeats but may differ in a detail not shown here. Identical values can stand only once.

For orientation: EC50 means the concentration giving half of the maximal effect. A low value points to higher potency in that assay. For orientation: IC50 means the concentration needed to halve the response being measured. Read a low IC50 as greater potency in that assay. In general, Kd refers to a measure of binding affinity in units of concentration.

Assay [1] has as its target T1, human IgE (human, UniProt P01854).
T1 chain: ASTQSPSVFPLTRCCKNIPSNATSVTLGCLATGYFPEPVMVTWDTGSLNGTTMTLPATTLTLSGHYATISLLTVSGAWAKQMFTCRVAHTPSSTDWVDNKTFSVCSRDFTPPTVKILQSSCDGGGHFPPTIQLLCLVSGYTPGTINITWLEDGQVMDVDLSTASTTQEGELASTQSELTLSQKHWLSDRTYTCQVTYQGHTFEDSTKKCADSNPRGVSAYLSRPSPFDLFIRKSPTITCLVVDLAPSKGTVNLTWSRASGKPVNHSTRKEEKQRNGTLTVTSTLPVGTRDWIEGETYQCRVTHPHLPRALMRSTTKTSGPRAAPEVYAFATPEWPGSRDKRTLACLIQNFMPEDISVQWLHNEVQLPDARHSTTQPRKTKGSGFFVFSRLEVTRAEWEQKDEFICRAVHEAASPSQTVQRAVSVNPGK
The experiment in a line: ELISA, pH 5.5. A general note: ELISA stands for enzyme-linked immunosorbent assay.

For assay [2], the target named is T1, human IgE. As to the kind of experiment: ELISA, pH 7.4.
Assay [3] concerns the target T1, human IgE. The experiment in a line: competition ELISA.
The target in assay [4] is T1, human IgE. The experiment in a line: SPR, pH 6.0. A general note: SPR reads the build-up and loss of mass on a sensor chip optically.
In assay [5] the target is T1, human IgE. The experiment in a line: SPR, pH 7.4.
For assay [6], the target named is T1, human IgE. The experiment in a line: SPR.
Assay [7] concerns the target T1, human IgE. As to the kind of experiment: competition SPR, pH 6.0.
Assay [8] has as its target T1, human IgE. As to the kind of experiment: competition SPR, pH 7.4.
Assay [9] has as its target T1, human IgE. As to the kind of experiment: competition SPR, pH 6.0.
The target of assay [10] is T1, human IgE. As to the kind of experiment: competition SPR, pH 7.4.
In assay [11] the target is T1, human IgE. The experiment in a line: competition ELISA, pH 6.0.
Assay [12] has as its target T1, human IgE. As to the kind of experiment: competition ELISA, pH 7.4.
Assay [13] has as its target T1, human IgE. As to the kind of experiment: competition ELISA, pH 7.4.
In assay [14] the target is T1, human IgE. The experiment in a line: competition ELISA, pH 6.0.
Assay [15] has as its target T1, human IgE. As to the kind of experiment: competition SPR, pH 7.4.
Assay [16] concerns the target T1, human IgE. The experiment in a line: competition SPR, pH 5.5.

B1: 18E2_VLY34H_MG (18E2VL) (antibody, V domains shown)
VH: QLLESGGGLVQPGGSLRLSCAASGFTFSSYVMSWVRQAPGKGLEWVSSIYHDGSHTYYADFVKGRFTISRDNSKNTLYLQMNSLRAEDTAVYYCAKGTSYSGSYYYTDPFFGSWGQGTLVTVSS
VL: SSELTQDPAVSVALGQTVRITCQGDRLGSRYIHWYQQKPGQAPVLVIYDDDRRPSGIPDRFSGSSSGNTASLTITGAQAEDEADYYCQSADSSGNPVFGGGTQLTVL
On to B1, for which the EC50 with human IgE [1] was 0.0269 µg/mL and 0.0323 µg/mL; in the assay with human IgE [2] it was 0.02 µg/mL and 0.0163 µg/mL. In the assay with human IgE [3], this molecule showed an IC50 of 6.06 nM.

B2: 18E2VLHis MG hIgG1-ABDEG (antibody, V domains shown)
VH: QLLESGGGLVQPGGSLRLSCAASGFTFSSYVMSWVRQAPGKGLEWVSSIYHDGSHTYYADFVKGRFTISRDNSKNTLYLQMNSLRAEDTAVYYCAKGTSYSGSYYYTDPFFGSWGQGTLVTVSS
VL: SSELTQDPAVSVALGQTVRITCQGDRLGSRYIHWYQQKPGQAPVLVIYDDDRRPSGIPDRFSGSSSGNTASLTITGAQAEDEADYYCQSADSSGNPVFGGGTQLTVL
B2: the figures for the dissociation constant Kd in the assay with human IgE [4] and with human IgE [5] were 205 nM and 5.91 nM, respectively.

B3: OMA VH15-VL3 (antibody, V domains shown)
VH: EVQLVESGGGLVQPGGSLRLSCAVSGYSITSGHRWEWIRQAPGKGLEWVASIHYDGSTNYNPSVKGRITISRDDSKNTFYLQMNSLRAEDTAVYYCARATHYFGHWHFAVWGQGTLVTVSS
VL: DIQLTQSPSSLSASVGDRVTITCRASQSVDYDGDSYMNWYQQKPGKAPKLLIEWGSYLRSGVPSRFSGSGSGTDFTLTISSLQPEDFATYYCQQNAEDPYTFGQGTKVEIK
The molecule B3 came in with a Kd in the assay with human IgE [6] of 0.0874 pM.

B4: 13E4 (antibody, V domains shown)
VH: ELQLVESGGGLVQPGGSLRLSCAASGFTFSSYVMSWVRQAPGKGLEWVSSIYHDGSHTYYADFVKGRFTISRDNAKNTLYLQMNSLKSEDTAVYYCASGTSYSGSYYYTDPFFGSWGQGTQVTVSS
VL: HSAVTQPSALSVTLGQTAKITCQGGSLGSNYAYWYQQKPGQAPVLVIYDDDSRPSGIPERFSGSSSGGTATLTISGAQAEDEGDYYCQSADSNGNAVFGGGTHLTVL
For the molecule B4, the IC50 amounted to 1.54 nM in the assay with human IgE [7]; 2.3 µg/mL in the assay with human IgE [8]; 2.5 µg/mL in the assay with human IgE [9]; 1.62 nM in the assay with human IgE [10]; 12.9 nM with human IgE [11]; 10.3 nM in the assay with human IgE [12]. Also, the IC50 in the assay with human IgE [13] amounted to 0.00682 µg/mL; with human IgE [14], 0.0114 µg/mL.

B5: 18E2His2-hIgG1-ABDEG (antibody, V domains shown)
VH: QLQLVESGGGLVQPGGSLRLSCAASGFTFSSYVMHWVRQAPGKGLEWVSSIYHDGSHTYYADFVKGRFTISRDNAKNTLYLQMNSLKSEDTAVYYCASGTSYSGSYYYTDPFFGSWGQGTQVTVSS
VL: NFMLTQPSALSVTLGQTARITCQGDRLGSRYIHWYQQKPPQAPVLVIHDDDRRPSGIPERFSGSSSGGTATLTISGAQAEDDGDYYCQSADSSGNPVFGGGTHLTVL
As for B5, the IC50 with human IgE [8] came out at 5.8 µg/mL; with human IgE [9] it was 7320 µg/mL; with human IgE [13], 1.49 µg/mL; in the assay with human IgE [14], 26.6 µg/mL.

B6: 18B9His-hIgG1-ABDEG (antibody, V domains shown)
VH: QVQLVESGGGLVQPGGSLRLSCAASGFTFSSYVMSWVRQAPGKGLEWVSSIYSDGSHTYYADSVKGRFTISRDNAKNTLYLQMNSLKSEDTAVYYCAKNLEHYSGSYYYTDPRYDYWGQGTQVTVSS
VL: SSALTQPSALSVTLGQTAKITCQGGSLGSSYVHWYQQKPGQAPVLVIHDGDSRPSGIPERFSGSSSGGTATLTISGAQAEDEDDYYCQSADSSGNAVFGGGTHLTVL
Turning to B6, the IC50 with human IgE [8] was 2.9 µg/mL; with human IgE [9], 52.9 µg/mL; with human IgE [13] it was 0.13 µg/mL; in the assay with human IgE [14] it was 2.55 µg/mL.

B7: 18E2_VH_S35H_VL_Y34H (18E2His2) (antibody, V domains shown)
VH: QLQLVESGGGLVQPGGSLRLSCAASGFTFSSYVMHWVRQAPGKGLEWVSSIYHDGSHTYYADFVKGRFTISRDNAKNTLYLQMNSLKSEDTAVYYCASGTSYSGSYYYTDPFFGSWGQGTQVTVSS
VL: NFMLTQPSALSVTLGQTARITCQGDRLGSRYIHWYQQKPPQAPVLVIHDDDRRPSGIPERFSGSSSGGTATLTISGAQAEDDGDYYCQSADSSGNPVFGGGTHLTVL
B7: the IC50 in the assay with human IgE [15] was determined as 1.56 µg/mL; with human IgE [8] it was 6 µg/mL; in the assay with human IgE [9] it was 6310 µg/mL; with human IgE [16], 9.86 µg/mL; in the assay with human IgE [13] it was 2.48 µg/mL; with human IgE [14], 77.2 µg/mL.

B8: VL18B9_Y49H (18B9His) (antibody, V domains shown)
VH: QVQLVESGGGLVQPGGSLRLSCAASGFTFSSYVMSWVRQAPGKGLEWVSSIYSDGSHTYYADSVKGRFTISRDNAKNTLYLQMNSLKSEDTAVYYCAKNLEHYSGSYYYTDPRYDYWGQGTQVTVSS
VL: SSALTQPSALSVTLGQTAKITCQGGSLGSSYVHWYQQKPGQAPVLVIHDGDSRPSGIPERFSGSSSGGTATLTISGAQAEDEDDYYCQSADSSGNAVFGGGTHLTVL
On to B8, for which the IC50 came out at 0.749 µg/mL with human IgE [15]; 2.7 µg/mL in the assay with human IgE [8]; 58.5 µg/mL with human IgE [9]; 4.06 µg/mL in the assay with human IgE [16]; 0.19 µg/mL with human IgE [13]; 3.02 µg/mL with human IgE [14].

B9: 13E4-hIgG1-ABDEG (antibody, V domains shown)
VH: ELQLVESGGGLVQPGGSLRLSCAASGFTFSSYVMSWVRQAPGKGLEWVSSIYHDGSHTYYADFVKGRFTISRDNAKNTLYLQMNSLKSEDTAVYYCASGTSYSGSYYYTDPFFGSWGQGTQVTVSS
VL: HSAVTQPSALSVTLGQTAKITCQGGSLGSNYAYWYQQKPGQAPVLVIYDDDSRPSGIPERFSGSSSGGTATLTISGAQAEDEGDYYCQSADSNGNAVFGGGTHLTVL
Regarding B9, the IC50 with human IgE [8] worked out at 3 µg/mL; in the assay with human IgE [9], 3.2 µg/mL; with human IgE [13], 0.0065 µg/mL; with human IgE [14], 0.0106 µg/mL.
